From patent US20230112123A1

Legend:
[1] = molecular target: human CD70 (human) (UniProt P32970); test: FACS binding; Raji cells
[2] = molecular target: human CD70 (human) (UniProt P32970); test: FACS binding; U266 cells
[3] = molecular target: human CD70 (human) (UniProt P32970); test: FACS binding; CHO-CD70 cells

Chain of human CD70 (human) (P32970 whole entry): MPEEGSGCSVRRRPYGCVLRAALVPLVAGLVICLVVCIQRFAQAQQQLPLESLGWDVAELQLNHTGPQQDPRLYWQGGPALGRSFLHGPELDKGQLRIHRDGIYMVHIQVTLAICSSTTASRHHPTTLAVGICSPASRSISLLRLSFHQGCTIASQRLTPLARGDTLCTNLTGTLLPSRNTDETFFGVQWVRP

## Cusatuzumab
[1]
  EC50: 2.16 nM
[2]
  EC50: 0.671 nM

## IMM40C
[3]
  EC50: 0.501 mg/L
[2]
  EC50: 0.0715 mg/L
